Results from patent US11667697 (VANDERBILT UNIVERSITY, dated 2023).

What was measured:
VACV B5 protein [1] = target: T1, VACV B5 protein (vaccinia virus, UniProt Q01227 20-275); assay: lysate ELISA
CPXV ortholog of B5 [2] = target: CPXV ortholog of B5 (cowpox virus); assay: lysate ELISA
MPXV ortholog of B5 = MPXV ortholog of B5 (monkeypox virus); assay: lysate ELISA
VACV B5 protein [3] = target: T1, VACV B5 protein; assay: purified antigen ELISA
VARV ortholog of B5 = VARV ortholog of B5 (variola virus); assay: purified antigen ELISA
VACV B5 protein [4] = target: T1, VACV B5 protein; assay: cell-based or functional assay
CPXV ortholog of B5 [5] = target: CPXV ortholog of B5 (cowpox virus); assay: cell-based or functional assay
VACV D8 protein = target: T2, VACV D8 protein (vaccinia virus, UniProt P04195 1-261); assay: antigen ELISA/array/BLI
T2 sequence: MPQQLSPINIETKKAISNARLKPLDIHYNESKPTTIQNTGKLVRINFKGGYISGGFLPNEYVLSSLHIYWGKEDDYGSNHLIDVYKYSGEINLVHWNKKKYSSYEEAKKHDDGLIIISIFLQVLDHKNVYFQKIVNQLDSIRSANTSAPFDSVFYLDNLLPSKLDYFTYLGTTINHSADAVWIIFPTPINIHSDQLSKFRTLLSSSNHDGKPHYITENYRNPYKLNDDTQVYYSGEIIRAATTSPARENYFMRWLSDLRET

VACV L1 protein [6] = target: T3, VACV L1 protein (vaccinia virus, UniProt P07612 1-185); assay: lysate ELISA
T3 sequence: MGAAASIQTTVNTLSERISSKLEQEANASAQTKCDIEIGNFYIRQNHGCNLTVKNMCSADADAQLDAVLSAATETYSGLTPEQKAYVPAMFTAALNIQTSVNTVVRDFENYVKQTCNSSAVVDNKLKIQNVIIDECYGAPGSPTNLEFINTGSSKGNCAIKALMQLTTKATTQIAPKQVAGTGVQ

VACV L1 protein [7] = target: T3, VACV L1 protein; assay: purified antigen ELISA
VACV L1 protein [8] = target: T3, VACV L1 protein; assay: cell-based or functional assay

B1: MPXV-92 (antibody)
chain 1: QVQLVESGPGLVKPSGTLSLTCAVSGGSISSSNWWSWVRQPPGKGLEWIGEIYHSGSTNYTPSLKSRVTISLDKSKNQFSLKLSSVTAADTAMYYCARNFYPGYLQYWGQGTLVTVSS
chain 2: QSALTQPASVSGSPGQSITISCTGTISDVGGYNYVSWYQQHPGKAPKLMIYDVNKRPSGVSNRFSGSKSGNT
In the case of B1, the EC50 (VACV B5 protein [1]) is reported as 0.064 µg/mL, the EC50 (CPXV ortholog of B5 [2]) is reported as 0.014 µg/mL and the EC50 (MPXV ortholog of B5) is reported as 0.046 µg/mL. The EC50 (VACV B5 protein [3]) was 0.7 µg/mL, the EC50 (VARV ortholog of B5) was 1.2 µg/mL and the “PRNT Emax, VACV EV+C'” value (VACV B5 protein [4]) was 86%. For the same binder, the “PRNT IC50, VACV EV+C'” value (VACV B5 protein [4]) was 0.08 µg/mL and the “PRNT IC50, CPXV EV+C'” value (CPXV ortholog of B5 [5]) was 0.5 µg/mL.

B2: VACV-77 (antibody, V domains shown)
VH: QVQLQESGPGLVKPSETLSLTCTVSGGSMSSYFWSWIRQPPGKGLEWIGYISYSGGTNYNPSLKSRVTISVDTSKNQFSLKLTSVTAADTAVYYCAREDRGSPDYWGQGTLVTVSS
VL: QSVLTQPPSVSAAPGRKVTISCSGSSSNIGNNYVSWYQQLPGTAPKLLIYDNYKRPSGIPDRFSGSKSGTSATLGITGLQTGDEADYYCGTWDLSLSAGVFGGGTKLTVL
B2: binds (VACV D8 protein).

B3: MPXV-87 (antibody, V domains shown)
V domain 1: QVQLVQSGAEVKKPGASVKVSCKASGYTFTSHGIIWVRQAPGQGLEWMGWISVYNDNTNSAQKFQDRVTMTTATSTSTAYMELRSLRSDDTAVYYCARSSSGPRYYYYGMDVWGQGTTSP
V domain 2: QSVVTQPPSVSGAPGQRVTISCTGSSSNIGAGYAVHWYYQLPGIAPKLLIFGNNNRPSGVPDRFSGSKSGTSASLAITGLQAEDEADYYCQSYDSSLSGWVFGGGTQVTVL
notes: human IgG1, anti-L1
In the case of B3, the EC50 (VACV L1 protein [6]) is reported as 0.01 µg/mL, the EC50 (VACV L1 protein [7]) is reported as 0.3 µg/mL and the “PRNT Emax, VACV MV” value (VACV L1 protein [8]) is reported as 61%. The “PRNT Emax, VACV MV+C'” value (VACV L1 protein [8]) was 72%, the “PRNT IC50, VACV MV” value (VACV L1 protein [8]) was 5 µg/mL and the “PRNT IC50, VACV MV+C'” value (VACV L1 protein [8]) was 0.8 µg/mL.
